The source of these data is the Human Domainome abundance scans (Beltran et al. 2025).

± gives the uncertainty stated by the source.

Sequences and labels used below:
B1: KAT8 regulatory NSL complex subunit 2, residues 28 to 91; numbered along this chain, Q9H9L4 (parent)
chain: CAFTHRPCSHPRLEGQEFCIKHILEDKNAPFKQCSYISTKNGKRCPNAAPKPEKKDGVSFCAEH

This data set covers variants of B1. In words: abundance fitness (aPCA) (normalised: wild type 0, dead -1); higher = more abundant; growth selection in yeast, the domain comes from the species named. The settings on record: Homo sapiens.
Consider CAFTHRPCSHPRLQGQEFCIKHILEDKNAPFKQCSYISTKNGKRCPNAAPKPEKKDGVSFCAEH, for which the abundance fitness is -0.155 ± 0.2.
Next, CAFTHRPCSHPRLEGQEFCIKHILEDKNAPFKQCSYISTKNGKRCPNAAPKPEKKDGVSFCAEP: -0.401 ± 0.13; CAFNHRPCSHPRLEGQEFCIKHILEDKNAPFKQCSYISTKNGKRCPNAAPKPEKKDGVSFCAEH: -0.201 ± 0.3.
Regarding CAFTHRPCSHPRLEGQEFCIKHILEDKNAPFKQCSYISTKNGKRCPNACPKPEKKDGVSFCAEH, the abundance fitness is -0.148 ± 0.091.
On to CAFTHRPCSHPRLEGQEFCIKHILEDKNAPFKQCSYISTKNGKRCPNAEPKPEKKDGVSFCAEH, for which the abundance fitness was -0.212 ± 0.17.
Regarding CAFTHRDCSHPRLEGQEFCIKHILEDKNAPFKQCSYISTKNGKRCPNAAPKPEKKDGVSFCAEH, the abundance fitness is 0.003 ± 0.1.
The result for CAFTHRVCSHPRLEGQEFCIKHILEDKNAPFKQCSYISTKNGKRCPNAAPKPEKKDGVSFCAEH reads -0.1 ± 0.052.
The result for CAFTHRWCSHPRLEGQEFCIKHILEDKNAPFKQCSYISTKNGKRCPNAAPKPEKKDGVSFCAEH reads -0.148 ± 0.06; that for CAFTHRACSHPRLEGQEFCIKHILEDKNAPFKQCSYISTKNGKRCPNAAPKPEKKDGVSFCAEH, -0.061 ± 0.076; that for CAFTHRPCSHPRLEWQEFCIKHILEDKNAPFKQCSYISTKNGKRCPNAAPKPEKKDGVSFCAEH, -0.592 ± 0.091.
As to CAFTHRPCSHPRLEGQEFCIKHILYDKNAPFKQCSYISTKNGKRCPNAAPKPEKKDGVSFCAEH, the abundance fitness is -0.05 ± 0.09.
Regarding CAFTHRPCSHPRLEGQEFCIKHILEDKNAQFKQCSYISTKNGKRCPNAAPKPEKKDGVSFCAEH, the abundance fitness is -0.279 ± 0.1.
Consider CAFTHRPCSHPRLEGQEFCIKHILEDKNARFKQCSYISTKNGKRCPNAAPKPEKKDGVSFCAEH, for which the abundance fitness is -0.198 ± 0.046.
As for CAFTHRPCSHPRYEGQEFCIKHILEDKNAPFKQCSYISTKNGKRCPNAAPKPEKKDGVSFCAEH, the abundance fitness is -0.277 ± 0.1.
CAFTHRPCSHPRNEGQEFCIKHILEDKNAPFKQCSYISTKNGKRCPNAAPKPEKKDGVSFCAEH: the abundance fitness is -0.53 ± 0.15.
For CAFTHRPCSHPRREGQEFCIKHILEDKNAPFKQCSYISTKNGKRCPNAAPKPEKKDGVSFCAEH, the abundance fitness was -0.465 ± 0.056.
As for CAFTHRPCSHPRLEGQEFCIKHILEDKNAPFKQCSYISTKNGKRCINAAPKPEKKDGVSFCAEH, the abundance fitness was -0.073 ± 0.061.
Take CAFTHRPCSHPRLEGQEFCIKHILEDKNAPFKQCSYISTKNGKRCVNAAPKPEKKDGVSFCAEH: the abundance fitness is -0.069 ± 0.068.
Turning to CAFTWRPCSHPRLEGQEFCIKHILEDKNAPFKQCSYISTKNGKRCPNAAPKPEKKDGVSFCAEH, the abundance fitness is -0.193 ± 0.081.
As to CAFTHRPCSHPRLEGQEFCIKHILEDLNAPFKQCSYISTKNGKRCPNAAPKPEKKDGVSFCAEH, the abundance fitness is -0.158 ± 0.041.
For CAFTHRPCSHPRLEGQEFCIKHILEDRNAPFKQCSYISTKNGKRCPNAAPKPEKKDGVSFCAEH, the abundance fitness is -0.12 ± 0.057.
With CAFTHRPCSHPRLEGQEFCIKHILEDANAPFKQCSYISTKNGKRCPNAAPKPEKKDGVSFCAEH, the abundance fitness is -0.019 ± 0.089.
As to CAFTHRPCSHPRLEGQEFCIKHILEDKNAPFKQCSYISTKNGKRCPNAAPKPEKKTGVSFCAEH, the abundance fitness was -0.057 ± 0.059.
Consider CAFTHRPCSHPRLEGQEFCIKHILEDKNAPFKQCSYISTKNGKRCPNAAPKPEKKDGVSFCASH, for which the abundance fitness is -0.093 ± 0.047.
The result for CAFTHRPCSHPRLEGQEFCIKHILEDKNAPFKQCSYISTKNGKRCPNAAPKPEKKDGVSFCAWH reads -0.086 ± 0.057; that for CAFTHRPCSHPRLEGQEFCIKHILEDKNAPFKQCSYISTKNGKRCPNAAPKPEKKDGVSFCAKH, -0.09 ± 0.085.
For the variant CAFTHRPCSIPRLEGQEFCIKHILEDKNAPFKQCSYISTKNGKRCPNAAPKPEKKDGVSFCAEH, the abundance fitness is -0.013 ± 0.13.
Regarding GAFTHRPCSHPRLEGQEFCIKHILEDKNAPFKQCSYISTKNGKRCPNAAPKPEKKDGVSFCAEH, the abundance fitness is -0.604 ± 0.15.
Next, IAFTHRPCSHPRLEGQEFCIKHILEDKNAPFKQCSYISTKNGKRCPNAAPKPEKKDGVSFCAEH: -0.287 ± 0.34; CAFTHRPCSHPRLEGQEFCIKHILEDKNAPFKQCSYISTKNGKRCPNAAPKPEKKDGPSFCAEH: -0.098 ± 0.094.
Next, CAFTHRPCSHPRLEGQEFCIKHILEDKNAPFKQCSYISTKNGKRCPNAAPKPEKKDGYSFCAEH: -0.046 ± 0.075; CAFTHRPCSHPSLEGQEFCIKHILEDKNAPFKQCSYISTKNGKRCPNAAPKPEKKDGVSFCAEH: -0.106 ± 0.057; CAFTHRPCSHPYLEGQEFCIKHILEDKNAPFKQCSYISTKNGKRCPNAAPKPEKKDGVSFCAEH: -0.787 ± 0.082.
CAFTHRPCSHPWLEGQEFCIKHILEDKNAPFKQCSYISTKNGKRCPNAAPKPEKKDGVSFCAEH: the abundance fitness is -1.22 ± 0.19.
Regarding CAFTHRPCNHPRLEGQEFCIKHILEDKNAPFKQCSYISTKNGKRCPNAAPKPEKKDGVSFCAEH, the abundance fitness was -0.313 ± 0.1.
The result for CAFTHRPCSHPRLEGQEFCIKHILEDKNAPFKQCSYLSTKNGKRCPNAAPKPEKKDGVSFCAEH reads -0.044 ± 0.047; that for CAFTHRPKSHPRLEGQEFCIKHILEDKNAPFKQCSYISTKNGKRCPNAAPKPEKKDGVSFCAEH, -0.664 ± 0.079; that for CAFTHRPPSHPRLEGQEFCIKHILEDKNAPFKQCSYISTKNGKRCPNAAPKPEKKDGVSFCAEH, -0.874 ± 0.086.
Regarding CAFTHRPWSHPRLEGQEFCIKHILEDKNAPFKQCSYISTKNGKRCPNAAPKPEKKDGVSFCAEH, the abundance fitness was -1.24 ± 0.093.
As to CAFTHRPCSHPRLEGQEFCIKHILEDKNAPFKQCSYISTKNGYRCPNAAPKPEKKDGVSFCAEH, the abundance fitness is -0.052 ± 0.072.
As for CAFTHRPCSHPRLEGQEFCIKHILEDKNAPFKQCSYISTKNGLRCPNAAPKPEKKDGVSFCAEH, the abundance fitness was -0.101 ± 0.052.
With CAFTHRPCSHPRLEGQEFCIKHILEDKNAPFKQCSYISTKNGGRCPNAAPKPEKKDGVSFCAEH, the abundance fitness was -0.144 ± 0.066.
